The results in this text go back to patent publication US20210198647A1 (TEXAS TECH UNIVERSITY SYSTEM, published 2021).

Common to all, as to test: cell-based or functional assay
Assay [1] concerns the target recombinant human neprilysin (R & D systems, product number 1182-ZNC) (human, UniProt P08473 52-750).
Assay [2] concerns the target recombinant human ACE2 (R & D systems, product number 933-ZN) (human, UniProt Q9BYF1 18-740).
Assay [3] has as its target recombinant human angiotensin converting enzyme (R & D systems, product number 929-ZN) (human, UniProt P12821 30-1261).
Assay [4] concerns the target recombinant human thimet oligopeptidase (R & D systems, product number 3439-ZN) (human, UniProt P52888 1-689, limits assumed).
Assay [5] deals with Neurolysin (Nln) as used for the A50 and Amax values of Tables 2 and 5.

Ends that are not written are not given here.

Chain of recombinant human neprilysin (R & D systems, product number 1182-ZNC) (P08473 52-750 limits assumed): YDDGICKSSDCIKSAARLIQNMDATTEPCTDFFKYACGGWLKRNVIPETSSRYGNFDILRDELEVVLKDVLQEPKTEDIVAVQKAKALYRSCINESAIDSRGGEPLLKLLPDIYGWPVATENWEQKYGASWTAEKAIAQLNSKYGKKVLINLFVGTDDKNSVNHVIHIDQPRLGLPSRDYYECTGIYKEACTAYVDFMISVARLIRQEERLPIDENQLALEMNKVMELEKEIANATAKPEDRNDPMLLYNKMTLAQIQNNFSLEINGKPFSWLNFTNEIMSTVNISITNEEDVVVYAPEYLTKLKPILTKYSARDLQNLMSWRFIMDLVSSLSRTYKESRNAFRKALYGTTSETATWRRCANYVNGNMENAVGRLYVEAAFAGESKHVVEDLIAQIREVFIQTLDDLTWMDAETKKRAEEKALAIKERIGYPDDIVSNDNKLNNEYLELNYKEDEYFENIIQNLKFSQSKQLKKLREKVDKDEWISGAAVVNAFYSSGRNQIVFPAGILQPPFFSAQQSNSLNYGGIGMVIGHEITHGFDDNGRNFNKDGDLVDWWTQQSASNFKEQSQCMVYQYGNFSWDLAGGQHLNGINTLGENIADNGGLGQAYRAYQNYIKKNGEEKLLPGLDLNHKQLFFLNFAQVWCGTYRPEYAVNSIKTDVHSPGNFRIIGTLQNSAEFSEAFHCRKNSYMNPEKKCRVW
Chain of recombinant human angiotensin converting enzyme (R & D systems, product number 929-ZN) (P12821 30-1261 limits assumed): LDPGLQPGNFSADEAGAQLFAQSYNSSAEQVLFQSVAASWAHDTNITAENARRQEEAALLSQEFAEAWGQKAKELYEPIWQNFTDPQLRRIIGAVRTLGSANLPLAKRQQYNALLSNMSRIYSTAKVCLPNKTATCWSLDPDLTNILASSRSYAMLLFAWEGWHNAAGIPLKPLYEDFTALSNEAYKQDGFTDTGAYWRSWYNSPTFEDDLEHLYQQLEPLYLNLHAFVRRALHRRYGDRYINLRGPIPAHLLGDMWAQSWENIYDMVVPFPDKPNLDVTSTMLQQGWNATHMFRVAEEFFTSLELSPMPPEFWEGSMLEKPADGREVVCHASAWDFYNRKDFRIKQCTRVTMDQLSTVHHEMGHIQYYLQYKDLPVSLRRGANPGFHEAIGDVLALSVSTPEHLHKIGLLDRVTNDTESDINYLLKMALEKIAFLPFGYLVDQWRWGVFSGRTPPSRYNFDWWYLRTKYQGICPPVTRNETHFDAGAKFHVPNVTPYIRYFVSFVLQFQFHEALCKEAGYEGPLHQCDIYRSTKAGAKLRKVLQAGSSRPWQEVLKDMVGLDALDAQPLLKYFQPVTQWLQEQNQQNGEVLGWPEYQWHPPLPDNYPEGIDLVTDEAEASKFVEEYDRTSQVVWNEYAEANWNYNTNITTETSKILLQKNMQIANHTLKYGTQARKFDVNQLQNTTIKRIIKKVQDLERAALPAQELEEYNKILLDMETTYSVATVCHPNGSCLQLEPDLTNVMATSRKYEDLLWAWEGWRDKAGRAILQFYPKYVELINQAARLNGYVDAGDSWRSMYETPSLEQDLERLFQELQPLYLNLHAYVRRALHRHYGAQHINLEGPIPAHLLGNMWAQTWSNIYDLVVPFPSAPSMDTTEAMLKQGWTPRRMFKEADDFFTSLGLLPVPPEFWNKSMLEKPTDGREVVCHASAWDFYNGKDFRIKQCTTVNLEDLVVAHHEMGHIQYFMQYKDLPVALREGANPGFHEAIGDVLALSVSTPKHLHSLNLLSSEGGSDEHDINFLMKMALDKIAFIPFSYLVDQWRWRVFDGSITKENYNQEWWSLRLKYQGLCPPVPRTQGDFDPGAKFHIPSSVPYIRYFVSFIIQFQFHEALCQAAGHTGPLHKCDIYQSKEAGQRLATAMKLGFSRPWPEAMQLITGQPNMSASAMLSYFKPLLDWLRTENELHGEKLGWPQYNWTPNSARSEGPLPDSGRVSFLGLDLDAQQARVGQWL
Chain of recombinant human thimet oligopeptidase (R & D systems, product number 3439-ZN) (P52888 whole entry): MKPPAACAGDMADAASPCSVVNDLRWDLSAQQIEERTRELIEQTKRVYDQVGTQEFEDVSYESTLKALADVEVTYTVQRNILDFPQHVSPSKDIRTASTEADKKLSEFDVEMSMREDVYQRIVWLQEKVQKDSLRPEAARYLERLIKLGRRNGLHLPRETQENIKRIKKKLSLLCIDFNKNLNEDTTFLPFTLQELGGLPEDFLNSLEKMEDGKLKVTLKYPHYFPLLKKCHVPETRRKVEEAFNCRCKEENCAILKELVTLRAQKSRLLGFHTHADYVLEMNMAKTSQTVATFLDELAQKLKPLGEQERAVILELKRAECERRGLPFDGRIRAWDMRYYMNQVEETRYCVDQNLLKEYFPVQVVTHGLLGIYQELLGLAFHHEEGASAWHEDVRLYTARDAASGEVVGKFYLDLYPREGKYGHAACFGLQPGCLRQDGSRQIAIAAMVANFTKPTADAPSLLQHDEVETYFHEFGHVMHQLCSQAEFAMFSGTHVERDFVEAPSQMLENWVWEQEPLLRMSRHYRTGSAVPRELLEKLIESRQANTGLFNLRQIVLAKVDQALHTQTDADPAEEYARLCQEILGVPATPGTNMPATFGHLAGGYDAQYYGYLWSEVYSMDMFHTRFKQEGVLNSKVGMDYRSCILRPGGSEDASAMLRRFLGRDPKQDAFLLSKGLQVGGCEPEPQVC
Chain of recombinant human ACE2 (R & D systems, product number 933-ZN) (Q9BYF1 18-740 limits assumed): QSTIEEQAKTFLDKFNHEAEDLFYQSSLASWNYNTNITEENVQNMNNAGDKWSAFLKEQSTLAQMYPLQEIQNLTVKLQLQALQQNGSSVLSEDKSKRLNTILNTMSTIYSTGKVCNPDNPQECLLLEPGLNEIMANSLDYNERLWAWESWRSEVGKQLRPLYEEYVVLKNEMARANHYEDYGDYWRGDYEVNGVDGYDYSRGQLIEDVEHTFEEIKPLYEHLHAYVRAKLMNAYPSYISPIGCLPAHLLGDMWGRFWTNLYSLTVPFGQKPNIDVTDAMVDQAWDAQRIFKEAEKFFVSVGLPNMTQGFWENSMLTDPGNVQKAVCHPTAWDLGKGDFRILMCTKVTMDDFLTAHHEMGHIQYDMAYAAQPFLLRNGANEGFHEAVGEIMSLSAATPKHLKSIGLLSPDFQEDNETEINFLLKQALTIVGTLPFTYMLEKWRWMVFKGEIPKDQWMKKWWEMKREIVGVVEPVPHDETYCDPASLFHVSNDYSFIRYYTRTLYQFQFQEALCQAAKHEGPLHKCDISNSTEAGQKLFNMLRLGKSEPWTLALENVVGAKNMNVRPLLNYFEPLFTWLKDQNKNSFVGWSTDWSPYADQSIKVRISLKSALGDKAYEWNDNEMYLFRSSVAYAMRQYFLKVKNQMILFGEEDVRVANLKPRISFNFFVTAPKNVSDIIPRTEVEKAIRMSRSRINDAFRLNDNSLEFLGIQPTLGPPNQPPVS

Consider HY [NlnA#1, NSC 374121, L-histidyl-L-tyrosine], for which the “inhibition of activity at 300 µM (quenched fluorescent substrate hydrolysis)” value turned out to be 2.9% in assay [1], 13.4% in assay [2], 22.6% in assay [3] and 25.9% in assay [4]. This molecule displayed an Amax in assay [5] of 467%.
As to His-His (also: mixture of D- and L-His at both positions) [NlnA#2, NSC 523374, D,L-histidyl-D,L-histidine], the “inhibition of activity at 300 µM (quenched fluorescent substrate hydrolysis)” value in assay [1] came to 1.6%; in assay [2] it was 10.9%; in assay [3], 12.2%; in assay [4], 15.6%.
HW [His-Trp] displayed an Amax in assay [5] of 440%.
Consider HP [His-Pro], for which, in assay [5], the Amax was 502%.
In assay [5], HF [His-Phe] displayed an A50 of 130 µM and an Amax of 573%.
